Measured values published in patent publication US20090060925A1, “Rage Fusion Proteins and Methods of Use” (THE TRUSTEES OF COLUMBIA UNIVERSITY IN THE CITY OF, priority 2004, published 2009).

Key:
[1] = system: Fc receptor; experiment: Fc receptor activation, TNF-α secretion from THP-1 cells; type: cell-based; conditions: well precoated with 10 ug/well heat aggregated protein; 24 hours
From the text: Fc stimulation results in TNF-α secretion.

[2] = system: animal model of stroke; experiment: Mouse model of stroke (carotid artery ligation and reperfusion, infarct); type: in vivo; conditions: Table 2
Description: In this model, the middle carotid artery of a mouse was ligated for 1 hour followed by 23 hours of reperfusion at which point the mice were sacrificed and the area of the infarct in the brain was assessed. […] Mice were injected intraperitoneally, 1 hour after the initiation of ischemia. Mice were subjected to one hour of cerebral ischemia followed by 24 hours of reperfusion. To induce ischemia, each mouse was anesthetized and body temperature was maintained at 36-37° C. by external warming. The left common carotid artery (CCA) was exposed through a midline incision in the neck. A microsurgical clip was placed around the origin of the internal carotid artery (ICA). […] After the nylon suture had been in place for 1 hour, the animal was re-anesthetized, rectal temperature was recorded and the suture was removed and the incision closed. Infarct volume was determined by anesthetizing the animals with an intraperitoneal injection of sodium pentobarbital (50 mg/kg) and then removing the brains. […] The infarct area in each section was determined with a computer-assisted image analysis system, consisting of a Power Macintosh computer equipped with a Quick Capture frame grabber card, Hitachi CCD camera mounted on a camera stand. […] The images were captured and the total area of infarct was determined over the sections. […] Summing the infarct volumes of the sections calculated the total infarct volume. […]

[3] = system: amyloid-beta; experiment: Competition of a RAGE ligand with immobilized amyloid-beta for binding to the fusion protein; conditions: RAGE ligand FAC 10 μM
Description: The fusion protein of the present invention may also be used to identify compounds having the ability to bind to RAGE.
Known RAGE ligands were coated onto the surface of Maxisorb plates at a concentration of 5 micrograms per well. Plates were incubated at 4° C. overnight. Following ligand incubation, plates were aspirated and a blocking buffer of 1% BSA in 50 mM imidizole buffer (pH 7.2) was added to the plates for 1 hour at room temperature. The plates were then aspirated and/or washed with wash buffer (20 mM Imidizole, 150 mM NaCl, 0.05% Tween-20, 5 mM CaCl2 and 5 mM MgCl2, pH 7.2). […] The fusion protein was added at increasing dilutions of the initial sample. The RAGE fusion protein was allowed to incubate with the immobilized ligand at 37° C. for one hour after which the plate was washed and assayed for binding of the fusion protein. Binding was detected by the addition of an immunodetection complex containing a monoclonal mouse anti-human IgG1 diluted 1:11,000 to a final assay concentration (FAC) of 21 ng/100 μL, a biotinylated goat anti-mouse IgG diluted 1:500, to a FAC of […], and an avidin-linked alkaline phosphatase. […] Binding of the complex to the immobilized fusion protein was quantified by measuring conversion of PNPP to para-nitrophenol (PNP) which was measured spectrophotometrically at 405 nm. […]

[4] = system: S100b/RAGE-induced production of TNF-α in THP-1 cells; experiment: Inhibition of S100b/RAGE-induced production of TNF-α in THP-1 cells; type: cell-based; conditions: 10 μg protein, S100b 0.1 mg/ml, 24 hours
Description: THP-1 myeloid cells may be cultured in RPMI-1640 media supplemented with 10% FBS and induced to secrete TNF-α via stimulation of RAGE with S100b. When such stimulation occurs in the presence of a RAGE fusion protein, induction of TNF-α by S100b binding to RAGE may be inhibited.
Previous work has shown that the myeloid THP-1 cells may secrete TNF-α in response to RAGE ligands. In this assay, THP-1 cells were cultured in RPMI-1640 media supplemented with 10% FBS using a protocol provided by ATCC. […] The amount of TNF-α secreted by the THP-1 cells was measured 24 hours after the addition of the proteins to the cell culture using a commercially available ELISA kit for TNF-α (R&D Systems, Minneapolis, Minn.).

B1: TTP-4000: four domain RAGE fusion protein, SEQ ID NO: 32: human RAGE amino acids 1-251 linked to CH2 and CH3 domains of human IgG (protein, listed as Homo sapiens)
chain: MAAGTAVGAWALVLSLWGAVVGAQNITARIGEPLVLKCKGAPKKPPQRLEWKLNTGRTEAWKVLSPQGGGPWDSVARVLPNGSLFLPAVGIQDEGIFRCQAMNRNGKETKSNYRVRVYQIPGKPEIVDSASELTAGVPNKVGTCVSEGSYPAGTLSWHLDGKPLVPNEKGVSVKEQTRRHPETGLFTLQSELMVTPARGGDPRPTFSCSFSPGLPRHRALRTAPIQPRVWEPVPLEEVQLVVEPEGGAVAPPSVFLFPPKPKDTLMISRTPEVTCVVVDVSHEDPEVKFNWYVDGVEVHNAKTKPREEQYNSTYRVVSVLTVLHQDWLNGKEYKCKVSNKALPAPIEKTISKAKGQPREPQVYTLPPSRDELTKNQVSLTCLVKGFYPSDIAVEWESNGQPENNYKTTPPVLDSDGSFFLYSKLTVDKSRWQQGNVFSCSVMHEALHNHYTQKSLSLSPGK
TNF secreted by THP-1 cells [1]: less than 2 ng/well
limiting the area of infarct, compared with sRAGE [2]: more efficacious than sRAGE
binding of fusion protein to immobilized amyloid-beta inhibited by the RAGE ligand ([3]; fusion protein initial solution diluted 1:10): completely inhibited
binding of fusion protein to immobilized amyloid-beta inhibited by the RAGE ligand ([3]; fusion protein initial solution diluted 1:30): completely inhibited
effect on S100b induction of TNF-α, in words [4]: at least as effective in blocking S100b induction of TNF-α as is sRAGE
